{
  "source": "paper PMC13456277",
  "about": "“Direct interaction between RSV polymerase L and active Rab11a mediates viral ribonucleoprotein transport to assembly sites” (PLOS Pathogens, 2026)",
  "binders": {"B1": {"name": "GST-Rab11a(Q70L) CA (natural protein)", "chain": "MGTRDDEYDYLFKVVLIGDSGVGKSNLLSRFTRNEFNLESKSTIGVEFATRSIQVDGKTIKAQIWDTAGLERYRAITSAYYRGAVGALLVYDIAKHLTYENVERWLKELRDHADSNIVIMLVGNKSDLRHLRAVPTDEARAFAEKNGLSFIETSALDSTNVEAAFQTILTEIYRIVSQKQMSDRRENDMSPSNNVVPIHVPPTTENKPKVQCCQNI"}, "B2": {"name": "GST-Rab11a WT (natural protein, human, UniProt P62491 1-216, looked up)", "chain": "B1 chain with L70Q", "notes": "human Rab11a; pGEX 4T-3; Used with or without 1 mM GTP; also called GST-Rab11a wild-type; source: E. coli BL21, purified (Glutathione Sepharose 4B, SEC Superdex 200); not shown: GST, N-terminal, kept"}},
  "key": {"[1]": {"molecular_target": "RSV L-Twin-Strep-tag + P-his (human respiratory syncytial virus, UniProt P28887 1-2165; P03421 1-241)", "assay": "BLI"}, "[2]": {"molecular_target": "T1, RSV L-Twin-Strep-tag + P-his (human respiratory syncytial virus, UniProt P28887 1-2165; P03421 1-241)", "T1 construct": "RSV large polymerase L, codon-optimized; RSV phosphoprotein P, codon-optimized; L as in m21; also called L-P^-his; L-P complexes; source: Sf9, baculovirus, purified (Strep-Trap XT, SEC Superose 6); not shown: Twin-Strep-tag, C-terminal, kept; His6, C-terminal, kept", "assay": "BLI; Octet RED 384, 25°C; L-Twin-Strep-tag + P-his loaded on Ni-NTA sensors; two-fold dilutions of GST-Rab11a (with 1 mM GTP) or GST-Rab11a CA from 50 nM to 3.2 µM; association 60 min to steady state, dissociation 5 min; apparent KD from steady-state responses, one-site model, double referenced", "conditions": "both partners purified"}},
  "note": "Positions count from the first letter of the chain named. Numbers in names are those of the source.",
  "data": [
    {"binder": "B1", "values": [
      {"measurement": "Kd", "setting": "[1]", "value": 1200, "unit": "nM"}
    ]},
    {"binder": "B2", "values": [
      {"measurement": "Kd", "setting": "[2]", "value": 300, "unit": "nM"}
    ]}
  ]
}
